Results as given in patent publication US20220193132A1.

Tests used:
[1] = molecular target: wild type human EGFR, full length, overexpressed on U87MG cells (human) (UniProt P00533); test: flow cytometry dose-response on U87MG-EGFRwt cells, apparent Kd
[2] = molecular target: EGFRvIII, full length, overexpressed on glioblastoma cells (human) (UniProt P00533); test: flow cytometry dose-response on U87MG-EGFRvIII cells, apparent Kd
[3] = molecular target: EGFRvIII, full length, overexpressed on glioblastoma cells (human) (UniProt P00533); test: cell-based or functional assay
[4] = molecular target: wild type human EGFR, full length, overexpressed on U87MG cells (human) (UniProt P00533); test: cell-based or functional assay
[5] = molecular target: recombinant human wild type EGFR protein (extracellular domain), native (human) (UniProt P00533); test: ELISA Exp 2, purified mAb 1 ug/ml
[6] = molecular target: recombinant human EGFRvIII protein (extracellular domain), denatured (human) (UniProt P00533); test: ELISA Exp 2, purified mAb 1 ug/ml
[7] = molecular target: recombinant human EGFRvIII protein (extracellular domain), native (human) (UniProt P00533); test: ELISA Exp 2, purified mAb 1 ug/ml
[8] = molecular target: recombinant human wild type EGFR protein (extracellular domain), denatured (human) (UniProt P00533); test: ELISA Exp 1, mAb supernatant
[9] = molecular target: recombinant human wild type EGFR protein (extracellular domain), native (human) (UniProt P00533); test: ELISA Exp 1, mAb supernatant
[10] = molecular target: recombinant human EGFRvIII protein (extracellular domain), denatured (human) (UniProt P00533); test: ELISA Exp 1, mAb supernatant
[11] = molecular target: recombinant human EGFRvIII protein (extracellular domain), native (human) (UniProt P00533); test: ELISA Exp 1, mAb supernatant
[12] = molecular target: recombinant human wild type EGFR protein (extracellular domain), denatured (human) (UniProt P00533); test: ELISA Exp 2, purified mAb 1 ug/ml

Row | Substance | Kd [1] | Kd [2] | % internalization (pHrodo surrogate assay, vs 225 mAb) [3] | % survival (DM1 secondary-conjugate ADC surrogate assay, vs mouse IgG) [3] | % internalization (pHrodo surrogate assay, vs 225 mAb) [4] | % survival (DM1 secondary-conjugate ADC surrogate assay, vs mouse IgG) [4] | ELISA absorbance 405 nm [5] | ELISA absorbance 405 nm [6] | ELISA absorbance 405 nm [7] | ELISA absorbance 405 nm [8] | ELISA absorbance 405 nm [9] | ELISA absorbance 405 nm [10] | ELISA absorbance 405 nm [11] | ELISA absorbance 405 nm [12]
1 | 225 mAb (ATCC HB-8508) (antibody) | 2.2 nM | 2.2 nM | 100% | 49% | 101% | 52% | 1.32 A405 | 0.004 A405 | 1.5 A405 | -0.01 A405 | 1.2 A405 | 0.001 A405 | 1.08 A405 | –
2 | Neg ctrl mIgG (antibody) | – | – | < 3% | – | – | – | – | – | – | – | – | – | – | –
3 | Neg ctrl mouse mAb (antibody) | – | – | – | > 98% | – | > 98% | – | – | -0.001 A405 | – | – | – | – | 0 A405
